Laboratory results taken from patent US20020106347A1, “Cytokines and their use in treatment and/or prophylaxis of breast cancer” (priority 1995, published 2002).

Key:
Assay type in all cases: cell-based, human
[1] = tested on: four breast cancer cell lines; assay: Proliferation of four breast cancer cell lines in monolayer culture (summary)
Protocol: (§1) Proliferation of the cell lines was measured in monolayer culture in 24 well Costar cluster plates. Cells were plated at an initial density of 10 000 cells/ml and cultured in 500 μl RPMI-1640 supplemented with 10% (v/v) (v/v) BCS and with each growth factor as indicated (LIF, 1000 U/ml; IL-6, 100 ng/ml; OSM, 10 ng/ml; CNTF, 10 ng/ml; IL-11, 100 ng/ml). These concentrations are maximally active in other systems (Nandurkar et al., 1996; Hilton et al., 1994; Zhang et al., 1994; Tanigawa et al., 1995). After 7 or 10 days at 37° C. in a fully humidified atmosphere containing 10% (v/v) CO2 in air, cells were trypsinised and counted using a haemocytometer and an inverted microscope. Cell viability was assessed using eosin exclusion. Results were expressed as a percentage of the corresponding untreated control value for that experiment.
Experiments were performed to determine whether these morphological changes were associated with alterations in cell growth. The proliferation of four breast cancer cell lines was examined in monolayer cultures containing either IL-6, LIF, OSM, CNTF or IL-11.

[2] = tested on: MCF-7 cells; assay: Proliferation of MCF-7 cells in monolayer (liquid) culture, viable cell count; conditions: for mean inhibition of cell proliferation: MCF-7, 7 days exposure, LIF 1000 U/ml, IL-6 100 ng/ml, OSM 10 ng/ml, IL-11 100 ng/ml, vs untreated control; for effect on cell proliferation (in words): MCF-7 / MCF-7M, up to 1 week culture
Protocol: FIGS. 2A, B and C are graphical representations of MCF-7M cells in liquid culture. 10^4 MCF-7M cells were cultured in 500 μl RPMI/10% bovine calf serum (BCS) (v/v) containing the indicated concentration of each of the growth factors (OSM or LIF). After 7 days culture viable cells were counted using a hemacytometer. Cell numbers reported here are the result of one experiment, each performed in triplicate.
FIG. 7 is a graphical representation showing inhibition of proliferation of MCF-7 cells by Oncostatin M (OSM). 10^4 MCF-7 cells were cultured in 500 μl RPMI/10% (v/v) BCS with the indicated concentrations of OSM. At 2, 4 and 6 days, viable cells were counted using a hemacytometer. Results are from 3 experiments, each performed in triplicate.
FIG. 8 is a graphical representation showing that MCF-7 cells are inhibited in a dose-dependent fashion by Oncostatin M (OSM). 10^4 MCF-7 cells were cultured in 500 μl RPMI/10% (v/v) BCS with the indicated concentrations of OSM. After 7 days viable cells were counted, and cell number expressed as a percentage of the corresponding untreated control value.
(§2) FIG. 16 is a graphical representation showing inhibition of MCF-7 cells after 7 days in suspension culture. 10^4MCF-7 cells were cultured in 500 μl RPMI/10% (v/v) BCS with the indicated growth factor. After 7 days viable cells were counted using a hemacytometer. Results are from 9 experiments, each performed in triplicate.
as §1

[3] = tested on: MCF-7 cells; assay: Clonogenic assay in agar after monolayer culture; conditions: MCF-7, 7 days monolayer then 14 days agar
Protocol: FIG. 3 is a graphical representation showing clonogenicity of MCF-7M cells. Following suspension culture MCF-7M cell viability was measured by agar culture. Cells were plated in agar with the indicated concentrations of each of the growth factors. After 14 days culture colonies of cells were counted. Cell numbers reported here are the results of 3 experiments, each performed in triplicate, and are expressed according to the number of cells that went into suspension culture.
FIG. 17 is a graphical representation showing clonogenicity of MCF-7 cells after 1 week in suspension culture. Following suspension culture clonogenicity of MCF-7 cells was assayed in agar culture. Cells were plated in agar with the indicated growth factor and maintained at 37° C0 in a humidified incubator with 5% CO2 in air. After 14 days colonies of cells were counted. Results are from 9 experiments using IL-6, LIF and OSM, and 5 experiments using CNTF and IL-11. Each experiment was performed in triplicate, and colony numbers are expressed as a percentage of untreated controls.
Clonogenic potential of cells following monolayer culture was assessed in a semi-solid culture medium. Cells were cultured in triplicate in 35 mm Petri dishes containing 1 ml Iscove's modified Dulbecco's medium (IMDM) supplemented with 25% (v/v) (v/v) BCS, 0.3% (w/v) agar with final concentration of growth factor as outlined above, and with 200 cells per ml for control cultures Cultures were maintained at 37° C. in a humidified incubator with 5% (v/v) CO2 in air. After 14 days, colonies were enumerated using a dissecting microscope. A colony was defined as a clone of greater than 40 cells. All cultures were performed in triplicate.

[4] = tested on: MCF-7 cells; assay: Cell morphology after exposure to growth factor; conditions: MCF-7 / MCF-7M, 6-14 days in growth factor
From the text: FIG. 4 is a photographic representation showing morphology of growth factor stimulated MCF-7M cells. Following 1 week in suspension culture containing the various growth factors, MCF-7M cells were cytospun onto slides and subsequently stained with Giemsa.
FIG. 11 is a photographic representation showing cell morphology after exposure to OSM. MCF-7 cells from control cultures and appears of cells after 7 days in OSM. A) Control cells, 10× magnification. B) OSM treated cells, 10× magnification. C) OSM treated cells, 40× magnification. D) OSM treated cells, 100× magnification.
FIG. 15 is a photographic representation showing cell morphology after exposure to OSM. MCF-7 cells from control cultures (Panel A) and appearance of cells after culture for 14 days in OSM (10 ng/ml) (Panel B). MDA-MB-231 cells from control cultures (Panel C) and appearance of cells after culture for 7 days in OSM (Panel D).

[5] = tested on: MDA-MB-231 cells; assay: Proliferation of MDA-MB-231 cells in culture, viable cell count; conditions: MDA-MB-231
Protocol: as §2, with “19” for “16”, “MDA-MB-231” for “inhibition of MCF-7”, “10^4MDA-MB-231” for “10^4MCF-7”, “8” for “9”
as §1

[6] = tested on: BT-549 cells; assay: Proliferation of BT-549 cells in culture, viable cell count
Protocol: FIGS 5A and B are graphical representations of BT-549 cells in liquid culture. 10^4 BT-549 cells were cultured in 500 μl RPMI/10% (v/v) BCS containing the relevant concentration of each of the growth factors (OSM, IL-11 and IL-6). After 10 days, culture viable cells were counted using a hemacytometer. Cell numbers reported here in the two graphs are the results of 1 experiment performed in triplicate.
FIG. 18 is a graphical representation showing BT-549 cells after 10 days in suspension culture. 10^4BT-549 cells were cultured in 500 μl RPMI/10% (v/v) BCS with the indicated growth factor. After 10 days culture viable cells were counted using a hemacytometer. Results are from 6 experiments, each performed in triplicate.
as §1

## interleukin-6 [IL-6]
[1]
  cell lines with significant inhibition of cellular proliferation: ¼
[2]
  mean inhibition of cell proliferation: 23%
  effect on cell proliferation (in words): did not appear to be able to induce inhibition
[3]
  effect on colony formation / clonogenic potential (in words): significant reduction of colony formation
[4]
  cell morphology (in words): morphologically similar to the control

B1: ciliary neurotrophic factor (protein, UniProt P26441 1-200, looked up)
Ciliary neurotrophic factor: MAFTEHSPLTPHRRDLCSRSIWLARKIRSDLTALTESYVKHQGLNKNINLDSADGMPVASTDQWSELTEAERLQENLQAYRTFHVLLARLLEDQQVHFTPTEGDFHQAIHTLLLQVAAFAYQIEELMILLEYKIPRNEADGMPINVGDGGLFEKKLWGLKVLQELSQWTVRSIHDLRFISSHQTGIPARGSHYIANNKKM
notes: human CNTF purchased from AMRAD Operations Ltd; cytokine
[2]
  effect on cell proliferation (in words): no effect on cellular proliferation
[5]
  effect on cellular proliferation (in words): did not respond
[3]
  effect on colony formation / clonogenic potential (in words): no effect on clonogenic potential

B2: interleukin-11 (protein, UniProt P20809 22-199, looked up)
Interleukin-11: PGPPPGPPRVSPDPRAELDSTVLLTRSLLADTRQLAAQLRDKFPADGDHNLDSLPTLAMSAGALGALQLPGVLTRLRADLLSYLRHVQWLRRAGGSSLKTLEPELGTLQARLDRLLRRLQLLMSRLALPQPPPDPPAPPLAPPSSAWGGIRAAHAILGGLHLTLDWAVRGLLLLKTRL
notes: human IL-11 purchased from Pepro Tech; cytokine
[6]; BT-549
  effect on cell proliferation (in words): inhibited
[6]; BT-549, 7 days
  mean growth inhibition: 30%
[6]; BT-549, 10 days
  growth inhibition, up to (maximum observed): up to 63%
  mean growth inhibition: 56%
[1]
  cell lines with significant inhibition of cellular proliferation: 2/4
[2]
  mean inhibition of cell proliferation: 27%
[3]
  effect on colony formation / clonogenic potential (in words): did not have detectable effect on subsequent clonogenicity
